This is an account of results in the Immune Epitope Database (IEDB).

Some results are limits rather than exact numbers.

Experiment [1] addresses HLA-B*07:02. Briefly: IEDB peptide-MHC binding, purified MHC/competitive/fluorescence; filed as Kd, often an IC50 or EC50 that approximates it; ≥ and ≤ were set here for values at or beyond the usual limits of such assays. As to conditions: source organism: Mycobacterium tuberculosis variant bovis BCG str. Pasteur 1173P2.
For experiment [2], the target named is HLA-A*02:12. Described as above.
Experiment [3] deals with HLA-A*02:03. The description is as above.
The target in experiment [4] is HLA-A*02:19. The experiment is described as above.
Experiment [5] addresses HLA-A*02:11. The experiment is described as above.
In experiment [6] the target is HLA-A*02:16. Described as above.
A further experiment deals with HLA-B*18:01. The description is as above.
In experiment [7] the target is HLA-B*51:01. Described as above. As to conditions: source organism: Vibrio cholerae 2740-80.
Experiment [8] has as its target HLA-B*57:01. The description is as above.
In experiment [9] the target is HLA-A*26:01. Described as above.
Experiment [10] has as its target HLA-B*15:01. Described as above. The following applies: source organism: Vibrio cholerae 2740-80.
Experiment [11] concerns the target HLA-B*46:01. The description is as above.
For experiment [12], the target named is HLA-B*27:03. Described as above.
Experiment [13] has as its target HLA-A*03:01. The experiment is described as above.
The target in experiment [14] is HLA-B*39:01. The experiment is described as above.
The next experiment deals with HLA-A*24:03. Described as above.
The target of experiment [15] is HLA-A*02:01. The description is as above.
In another experiment the target is HLA-A*11:01. As to the kind of experiment: IEDB peptide-MHC binding, purified MHC/direct/fluorescence; filed as Kd, often an IC50 or EC50 that approximates it; ≥ and ≤ were set here for values at or beyond the usual limits of such assays.
In the next experiment the target is HLA-A*31:01. Briefly: IEDB peptide-MHC binding, purified MHC/competitive/fluorescence; filed as Kd, often an IC50 or EC50 that approximates it; ≥ and ≤ were set here for values at or beyond the usual limits of such assays.
The next experiment has as its target HLA-A*02:06. The description is as above.
The target in experiment [16] is HLA-A*69:01. The description is as above. The following applies: source organism: Human immunodeficiency virus type 1 (ELI ISOLATE).
The target in experiment [17] is HLA-B*07:02. As to the kind of experiment: IEDB peptide-MHC binding, purified MHC/direct/fluorescence; filed as Kd, often an IC50 or EC50 that approximates it; ≥ and ≤ were set here for values at or beyond the usual limits of such assays. As to conditions: source organism: Escherichia coli O157:H7 str. EC869.
In experiment [18] the target is HLA-A*02:16. The experiment is described as above. As to conditions: source organism: Escherichia coli O157:H7 str. EC869.
In experiment [19] the target is HLA-A*02:12. The experiment is described as above. As to conditions: source organism: Escherichia coli O157:H7 str. EC869.
The target of experiment [20] is HLA-A*02:03. Described as above. As to conditions: source organism: Escherichia coli O157:H7 str. EC869.
Experiment [21] concerns the target HLA-A*02:19. The experiment is described as above. As to conditions: source organism: Escherichia coli O157:H7 str. EC869.
Experiment [22] addresses HLA-B*51:01. The description is as above. As to conditions: source organism: Escherichia coli O157:H7 str. EC869.
Experiment [23] concerns the target HLA-B*57:01. Described as above. As to conditions: source organism: Escherichia coli O157:H7 str. EC869.
Experiment [24] addresses HLA-A*26:01. The description is as above. As to conditions: source organism: Escherichia coli O157:H7 str. EC869.
For experiment [25], the target named is HLA-A*02:11. The experiment is described as above. The following applies: source organism: Escherichia coli O157:H7 str. EC869.
Experiment [26] addresses HLA-B*15:01. Described as above. As to conditions: source organism: Escherichia coli O157:H7 str. EC869.
The target in experiment [27] is HLA-B*46:01. Described as above. As to conditions: source organism: Escherichia coli O157:H7 str. EC869.
The target in the next experiment is HLA-B*35:01. Described as above. As to conditions: source organism: Escherichia coli O157:H7 str. EC869.
For experiment [28], the target named is HLA-B*27:03. Described as above. The following applies: source organism: Escherichia coli O157:H7 str. EC869.
The target in experiment [29] is HLA-A*03:01. Described as above. As to conditions: source organism: Escherichia coli O157:H7 str. EC869.
For the next experiment, the target named is HLA-A*68:02. The experiment is described as above. As to conditions: source organism: Escherichia coli O157:H7 str. EC869.
Experiment [30] has as its target HLA-B*39:01. The experiment is described as above. The following applies: source organism: Escherichia coli O157:H7 str. EC869.
The target in experiment [31] is HLA-A*02:01. Described as above. As to conditions: source organism: Escherichia coli O157:H7 str. EC869.
Experiment [32] has as its target HLA-A*69:01. The experiment is described as above. The following applies: source organism: Escherichia coli O157:H7 str. EC869.
The mark [33] stands for this setting: source organism: Mycobacterium tuberculosis variant bovis BCG str. Pasteur 1173P2.
Where [34] appears, read: source organism: Vibrio cholerae 2740-80.
Setting [35] is: source organism: Escherichia coli ATCC 8739.
[36] abbreviates: source organism: Human immunodeficiency virus type 1 (ELI ISOLATE).
Setting [37] is: source organism: Giardia lamblia ATCC 50803.

As to SLYEKSGSV, the Kd with HLA-B*07:02 [1] is not below 20 µM; with HLA-A*02:12 [2] (setting [33]) it was 0.0341 µM; with HLA-A*02:03 [3] (setting [33]), not above 0.001 µM; with HLA-A*02:19 [4] (setting [33]), 0.13 µM; in the experiment with HLA-A*02:11 [5] (setting [33]), 0.0011 µM.
In the case of IFIRTIYYH, the dissociation constant (Kd) in the experiment with HLA-A*02:16 [6] (setting [34]), in the experiment with HLA-A*02:12 [2] (setting [34]), with HLA-A*02:03 [3] (setting [34]), with HLA-B*18:01 (setting [34]), in the experiment with HLA-A*02:19 [4] (setting [34]) and in the experiment with HLA-B*51:01 [7] was not below 20 µM throughout. In addition, the Kd with HLA-B*57:01 [8] (setting [34]), in the experiment with HLA-A*26:01 [9] (setting [34]), in the experiment with HLA-A*02:11 [5] (setting [34]), in the experiment with HLA-B*15:01 [10], with HLA-B*46:01 [11] (setting [34]) and with HLA-B*27:03 [12] (setting [34]) was not below 20 µM in each case. Besides, the Kd with HLA-A*03:01 [13] (setting [34]), with HLA-B*39:01 [14] (setting [34]), with HLA-A*24:03 (setting [34]) and with HLA-A*02:01 [15] (setting [34]) was not below 20 µM in each case.
With LTYRHKVVK, the dissociation constant (Kd) with HLA-A*11:01 (source organism: West Nile virus) is 0.0298 µM; with HLA-A*31:01 (source organism: Japanese encephalitis virus), 0.0239 µM.
For the sequence GLLDWGMQQ, the Kd with HLA-A*02:06 (setting [35]) is 1.55 µM; in the experiment with HLA-A*02:01 [15] (setting [35]), 0.119 µM.
Take SLGQHIYET: the Kd with HLA-A*02:16 [6] (setting [36]) is 0.006 µM; in the experiment with HLA-A*02:12 [2] (setting [36]), 0.0225 µM; with HLA-A*02:03 [3] (setting [36]), 0.0065 µM; with HLA-A*02:19 [4] (setting [36]), 0.084 µM; in the experiment with HLA-A*02:06 (setting [36]), 0.011 µM; with HLA-A*02:01 [15] (setting [36]), 0.012 µM. In the experiment with HLA-A*69:01 [16], this sequence registered a Kd not below 20 µM.
MARPADASM: the Kd with HLA-A*02:16 [6] (setting [37]) was not below 20 µM; in the experiment with HLA-A*02:12 [2] (setting [37]), not below 20 µM; with HLA-A*02:03 [3] (setting [37]), not below 20 µM; with HLA-B*18:01 (setting [37]), not below 20 µM; with HLA-A*02:19 [4] (setting [37]), not below 20 µM; with HLA-B*57:01 [8] (setting [37]), 0.121 µM. Further, the Kd in the experiment with HLA-A*26:01 [9] (setting [37]) is not below 20 µM; with HLA-A*02:11 [5] (setting [37]) it was not below 20 µM; in the experiment with HLA-B*46:01 [11] (setting [37]) it was 2.2 µM; with HLA-B*27:03 [12] (setting [37]), not below 20 µM; with HLA-A*03:01 [13] (setting [37]), not below 20 µM; with HLA-B*39:01 [14] (setting [37]) it was not below 20 µM. Besides, the dissociation constant Kd in the experiment with HLA-A*24:03 (setting [37]) and in the experiment with HLA-A*02:01 [15] (setting [37]) was not below 20 µM in each case.
For the sequence YGSWFGLIY, the Kd with HLA-B*07:02 [17], in the experiment with HLA-A*02:16 [18], with HLA-A*02:12 [19], with HLA-A*02:03 [20], with HLA-A*02:19 [21] and with HLA-B*51:01 [22] was not below 20 µM throughout. Moreover, the Kd was not below 20 µM with HLA-B*57:01 [23]; not below 20 µM with HLA-A*26:01 [24]; not below 20 µM in the experiment with HLA-A*02:11 [25]; 0.18 µM in the experiment with HLA-B*15:01 [26]; not below 20 µM with HLA-B*46:01 [27]; 0.006 µM with HLA-B*35:01. Besides, the Kd in the experiment with HLA-B*27:03 [28], with HLA-A*03:01 [29], in the experiment with HLA-A*68:02, in the experiment with HLA-B*39:01 [30], in the experiment with HLA-A*02:01 [31] and in the experiment with HLA-A*69:01 [32] was not below 20 µM each time.
Regarding SYYCAGLKK, the Kd in the experiment with HLA-A*11:01 (source organism: Dengue virus 1 Singapore/S275/1990) came to 0.0801 µM; with HLA-A*31:01 (source organism: dengue virus type 1) it was 1.96 µM.

Broadly, the Kd is the free concentration of one partner at which half of the binding sites on the other are occupied at equilibrium, for simple one-to-one binding. High values mean lower affinity, low ones higher affinity.
